Changes are numbered by the printed parent chain.
T1: GST-IPA1 fusion protein (rice (Oryza sativa), UniProt Q7EXZ2 1-417)
T1 construct: IPA1/OsSPL14 of rice, full-length CDS in pGEX-4T-1; source: E. coli BL21 (DE3), purified on glutathione beads
T1 sequence (looked up): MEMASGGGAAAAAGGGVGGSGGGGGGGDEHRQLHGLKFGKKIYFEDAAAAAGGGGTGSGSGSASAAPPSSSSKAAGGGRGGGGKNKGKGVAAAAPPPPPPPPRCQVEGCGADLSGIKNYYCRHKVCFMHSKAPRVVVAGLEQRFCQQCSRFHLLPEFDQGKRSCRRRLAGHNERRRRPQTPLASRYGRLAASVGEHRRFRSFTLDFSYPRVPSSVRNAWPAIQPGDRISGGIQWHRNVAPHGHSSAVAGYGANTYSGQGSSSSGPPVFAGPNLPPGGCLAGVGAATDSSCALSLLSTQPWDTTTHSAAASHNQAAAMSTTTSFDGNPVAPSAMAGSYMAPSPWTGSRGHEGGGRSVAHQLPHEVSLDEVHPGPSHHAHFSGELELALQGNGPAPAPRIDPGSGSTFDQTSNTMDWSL

T2: GS2TM (miR396 target-site mutant) (Oryza sativa (rice), GS2TM plants?, UniProt Q6ZIK5 1-394, S163K)
T2 sequence: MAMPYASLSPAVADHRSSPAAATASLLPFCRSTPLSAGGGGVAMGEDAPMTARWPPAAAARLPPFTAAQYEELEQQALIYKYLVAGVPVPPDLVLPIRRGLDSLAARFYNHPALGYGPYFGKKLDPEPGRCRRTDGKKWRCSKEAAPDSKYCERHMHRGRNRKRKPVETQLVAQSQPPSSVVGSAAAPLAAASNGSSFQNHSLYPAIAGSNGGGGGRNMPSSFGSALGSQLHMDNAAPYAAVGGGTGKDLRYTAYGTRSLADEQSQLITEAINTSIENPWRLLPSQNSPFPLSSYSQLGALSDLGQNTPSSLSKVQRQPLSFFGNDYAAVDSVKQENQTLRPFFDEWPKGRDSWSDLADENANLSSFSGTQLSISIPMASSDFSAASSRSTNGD

T3: GS2 (OsGRF4) (Oryza sativa (rice), ZH11?, UniProt Q6ZIK5 1-394)
T3 sequence: T2 sequence with K163S

B1: His-GS2 fusion protein (natural protein, rice (Oryza sativa), UniProt Q6ZIK5 1-394, looked up)
chain: T2 sequence with K163S
notes: GS2/OsGRF4 of rice, full-length CDS in pET28a
B2: GCCA core motif probe (GS2-EMSA) (dsDNA)
DNA 1: CCTGTCAAAGCCGGCCATCGCTGCCGGCTG
DNA 2: CAGCCGGCAGCGATGGCCGGCTTTGACAGG

How the values were obtained:
[1] = molecular target: T1, GST-IPA1 fusion protein; assay: pull-down; about 0.5 μg GST-IPA1 bound to GST beads at 4°C for 2 h, the same amount of His-GS2 incubated for 2 h; 150 mM KCl, 50 mM Tris-HCl pH 7.5, 0.01% NP-40; detected with His and GST antibodies; conditions: both partners purified
[2] = molecular target: T2, GS2TM (miR396 target-site mutant); assay: EMSA; EMSA: 20 min at 25 C, 4% acrylamide gel, biotin probes (Beyotime GS008/GS009); buffer, salt and pH not stated; conditions: protein: recombinant; tags: GST; label: biotin; blunt
[3] = molecular target: T3, GS2 (OsGRF4); assay: as above; conditions: protein: recombinant; tags: GST; label: biotin; blunt

Binder	binding result [1]	binding result [2]	binding result [3]
B1	binds		
B2		binds	binds
